Experimental data: paper doi:10.1101/2021.02.03.429574 (bioRxiv, 2021)

B1: plastocyanin (Pisum sativum), reduced (natural protein, Pisum sativum (pea), UniProt P16002 70-168, looked up)
chain: VEVLLGASDGGLAFVPSSLEVSAGETIVFKNNAGFPHNVVFDEDEIPAGVDASKISMPEEDLLNAPGETYSVKLDAKGTYKFYCSPHQGAGMVGQVTVN
B2: plastocyanin used with Chlamydomonas reinhardtii PSI (natural protein, UniProt P18068 48-145, looked up)
chain: DATVKLGADSGALEFVPKTLTIKSGETVNFVNNAGFPHNIVFDEDAIPSGVNADAISRDDYLNAPGETYSVKLTAAGEYGYYCEPHQGAGMVGKIIVQ

Experiments:
[1] = target: PsaB (Pisum sativum photosystem I) (Pisum sativum (pea), UniProt P05311 13-734); experiment: cryo-EM structure
[2] = target: PsaA (Pisum sativum photosystem I) (Pisum sativum (pea), UniProt P05310 16-758); experiment: cryo-EM structure
[3] = target: photosystem I of Chlamydomonas reinhardtii, wild type (Chlamydomonas reinhardtii, UniProt P12154 1-751; P09144 1-735; P12356 63-227); experiment: flash-induced absorbance transients at 817 nm

Sequence of PsaA (Pisum sativum photosystem I) (P05310 16-758): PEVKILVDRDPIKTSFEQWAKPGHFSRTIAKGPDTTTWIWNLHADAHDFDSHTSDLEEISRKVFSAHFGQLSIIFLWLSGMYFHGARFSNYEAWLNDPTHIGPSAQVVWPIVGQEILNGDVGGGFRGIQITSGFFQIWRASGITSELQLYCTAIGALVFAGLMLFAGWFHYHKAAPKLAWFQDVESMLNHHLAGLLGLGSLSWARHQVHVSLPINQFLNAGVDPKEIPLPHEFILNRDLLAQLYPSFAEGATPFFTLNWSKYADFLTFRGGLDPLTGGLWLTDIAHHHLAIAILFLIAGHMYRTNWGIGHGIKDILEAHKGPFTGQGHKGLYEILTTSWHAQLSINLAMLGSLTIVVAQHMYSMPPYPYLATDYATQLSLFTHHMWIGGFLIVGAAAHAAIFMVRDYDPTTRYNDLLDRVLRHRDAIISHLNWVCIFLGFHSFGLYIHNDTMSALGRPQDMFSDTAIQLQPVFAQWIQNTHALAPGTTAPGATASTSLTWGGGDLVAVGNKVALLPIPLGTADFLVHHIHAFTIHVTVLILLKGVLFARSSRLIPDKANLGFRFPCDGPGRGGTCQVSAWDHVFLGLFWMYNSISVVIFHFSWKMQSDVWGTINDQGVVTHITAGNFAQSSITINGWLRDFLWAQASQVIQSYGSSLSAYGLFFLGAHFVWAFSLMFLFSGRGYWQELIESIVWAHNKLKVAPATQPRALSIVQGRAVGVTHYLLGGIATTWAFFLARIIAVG
Sequence of PsaB (Pisum sativum photosystem I) (P05311 13-734): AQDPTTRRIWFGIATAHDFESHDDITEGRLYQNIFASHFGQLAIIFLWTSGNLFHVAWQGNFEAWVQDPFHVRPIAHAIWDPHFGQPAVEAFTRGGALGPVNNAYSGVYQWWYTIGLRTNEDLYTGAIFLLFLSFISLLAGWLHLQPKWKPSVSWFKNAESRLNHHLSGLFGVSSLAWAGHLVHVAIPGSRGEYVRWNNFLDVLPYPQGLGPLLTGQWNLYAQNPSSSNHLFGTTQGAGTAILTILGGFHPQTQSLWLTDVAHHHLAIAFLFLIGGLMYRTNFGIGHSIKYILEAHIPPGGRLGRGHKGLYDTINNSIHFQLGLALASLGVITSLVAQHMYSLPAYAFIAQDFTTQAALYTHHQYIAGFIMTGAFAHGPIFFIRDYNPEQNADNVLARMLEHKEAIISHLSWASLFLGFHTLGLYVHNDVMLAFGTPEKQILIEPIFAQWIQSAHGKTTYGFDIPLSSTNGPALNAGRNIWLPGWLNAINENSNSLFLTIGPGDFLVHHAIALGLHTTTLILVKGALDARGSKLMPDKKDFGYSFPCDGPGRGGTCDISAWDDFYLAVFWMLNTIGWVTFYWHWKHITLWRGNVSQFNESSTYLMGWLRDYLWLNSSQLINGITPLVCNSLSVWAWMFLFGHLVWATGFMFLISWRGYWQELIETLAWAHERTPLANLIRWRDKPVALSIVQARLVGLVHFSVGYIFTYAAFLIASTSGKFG

Row | Binder | binding result [1] | binding result [2] | Kd [3] [µM]
1 | B1 | binds | binds | 
2 | B2 |  |  | 88
